Results taken from the nanobody polyreactivity screen of Harvey et al. (2022).

Experiment: yeast display, Sf9 membrane polyspecificity reagent, FACS + sequencing; frameworks hold sequencing errors
Procedure, shortened: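 A nanobody's polyreactivity label depends on the gate it was sorted from. Yeast display cells were stained with 10% biotinylated, detergent-solubilized Sf9 membrane reagent for 1 hour at 4 °C, enriched on streptavidin microbeads and sorted by FACS. The low and high (top ~1%) gates were set on anti-HA fluorescence for expression and streptavidin fluorescence for reagent binding.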

## QVQLVESGGGLVQAGGSLRLSCAASGIIIKYYAMGWYRQAPGKERELVAAITDRGGSTYYADSVKGRFTISRDNAKNTVYLQMNSLKPEDTAVYYCAARRRAYTPYYYWGQGTQVTVSS
  polyreactivity (PSR sort gate): high polyreactivity

## QVQLVESGGGLVQAGGSLRLSCAASGRIFGPYVMGWYRQAPGKEREFVAAISRRTGSTYYADSVKGRFTISRDNAKNTVYLQMNSLKPEDTAVYYCAATYYFSHVVGYGYWGQGTQVTVSS
  polyreactivity (PSR sort gate): high polyreactivity

## QVQLVESGGGIVQAGGSLRLSCAASGRTFFLYTLGWYRQAPGKEREFVAAINYSGGRTYYADSVKGRFTISRDKAKNTVYLQMNSLKPEDTAVYYCAAYRGSYSYDYWGQGTQVTVSS
  polyreactivity (PSR sort gate): high polyreactivity

## QVQLVESGGGLVQAGGSLRLSCAASGRTFLIYAMGWYRQAPGKERELVAAINFSGGNTYYADSVKGRFTISRDNAKNTVYLQMNSLKPEDTAVYYCAARYRIGNNGYEYWGQGTQVTVSS
  polyreactivity (PSR sort gate): low polyreactivity

## QVQLVESGGGLVQAGGSLRLSCAASGSIFGGNAMGCYRQAPGKERELVAAITDGGNTNYADSVKGRFTISRDNAKNTVYLQMNSLKPEDTAVYYCAARMPGTYGGRYGYDYWGQGTQVTVSS
  polyreactivity (PSR sort gate): low polyreactivity

## QVQLVESGGGLVQAGGSLRLSCAASGRTFYYNVMGWYRQAPGKESELVAAITNSGSTNYADSVKGRFTISRDNAKNTVYLQMNSLKPEDTAVYYCAARITYYGRKRGSRDYWGQGTQVTVSS
  polyreactivity (PSR sort gate): high polyreactivity

## QVQLVESGGGLVQAGGSLRLSCAASGSTFKFNDMGWYRQAPGKERELVAAISRGGRTNYADSVKGRFTISRDNAKNTVYLQMNSLKPEDTAVYYCAADYSTLYKYDYWGQGTQVTVSS
  polyreactivity (PSR sort gate): low polyreactivity

## QVQLVESGGGLVQAGGTLRLSSAPTGSNFSAYAKGWYREAPGKERELVAAISTSGYTNYADSVKGRFTISRDKALNTVYLQMNSLKPEDTAVSYCAADRDYGDGTAGYGYEFDYWGQGTQVTVSS
  polyreactivity (PSR sort gate): low polyreactivity

## QVQLVESGVGLVQAGGSLRLSCAASGRIFPGNVMGWYIQAPGKERELVAAISRGGGSTYYADSVKGRFTISRDIAKNTVYAQMNSLKPEDTAVYYCNVLRYQSRFRYDYWGLGTQVTVSS
  polyreactivity (PSR sort gate): high polyreactivity

## QVQLVESGGGLVQAGGSLRLRCGASGRTFSSNAMGWYRQAPGKERELVAVITRRGGSTYYADSVKGLFTISRDNAMNNVYLQMNSLKPEDTAVYYCATVAPPQRSGRRSAGEKYYYWGQGTQVTVSS
  polyreactivity (PSR sort gate): high polyreactivity

## QVQLVESGGGLVQARGSLRLSCAASGSTFIPNTMGWSRQAPGKERELVAAISRRGGSKNYADSVKGRFTISRDNAKNTVYLQMNSLNPEDTAVYYCAAASPRRYRYDYWGQGTQVTVSS
  polyreactivity (PSR sort gate): high polyreactivity

## QVQLVESGGGLVQAGGSLRLSCAASGFTFFRYAMGWYRQAPGKERELVAAISWSGGRTYYADSVKGRFTISRDNAKNTVYLQMNSLKPEDTAVYYCAVDYYRSGLHYDSWGQGTQVTVSS
  polyreactivity (PSR sort gate): high polyreactivity

## QVQLVESGGGLVQAGGSLRLSCAASGSTFSPNAMGWYRQAPGKERELVAAITYRGANTYYADSVKGRFTISRDNEKNTVYLQMNSLKPEDNAVYYCAAEYAYHHVGFGYWGQGTQVTVSS
  polyreactivity (PSR sort gate): low polyreactivity

## QVQLVESGGGLVQAGGSLRLSCAASGRIFRSNAMGWYRQAPWKERELVATITSSGGRTYYADSVKGRFTISRDNAKNTVYLQMNSLKPEDTAVYYCIAQQRTRGQKAQWVRDEYWGQGTQVTVSS
  polyreactivity (PSR sort gate): low polyreactivity

## QVQLVESGGGLVQAGGSLRLSCAASGSIFTYNAMGWYRQAPGKERELVAAISRGGGRTYYADSVKGRFTISRDNAKNTVYLQMNSLKPEDTAVYYCAADIYVRQRYPYYYWGQGTQVTVSS
  polyreactivity (PSR sort gate): high polyreactivity

## QVQLVESGGGLVQAGGSLRLSCAASRFLFWSYAMGWYRQAPGKERELVAAISWRGGSTYYADSVKGRFSISRDTAKNTVYLQMNSLKPEDTAVYYCAAERYNGYDYWGQGTQVTVSS
  polyreactivity (PSR sort gate): high polyreactivity

## QVQLVESGGGLVQAGGSLRLSCAASGFTFPWYAMGWYRQAPGKERELVAAISTSGDSTYYADSVKGRFTISRDNAKNTVYLQMNSLKPEDTAVYYCAARVVRGRYGYWGQGTQVTVSS
  polyreactivity (PSR sort gate): high polyreactivity

## QVQLVESGGGLVQAGGSLRLSCAASGRIFYPYAMGWYRQAPGKERELVAAISRSGGSTYYADSVKGRFTISRDNAKNTVYLQMNSLKPEDTAVYYCAKVTSSGDAVLTQIPYGYDYWGQGTQVTVSS
  polyreactivity (PSR sort gate): low polyreactivity

## QVQLVESGGGLVQAGGSLRLSCAASGSTFQQYAMGWYRQAPGKEREFVARISYGGGSTYYADSVKGRFTISRDNAKNTVYLQMNSLKPEDTAVYYCNAVRKGYYRWVFQNRYYYWGQGTQVTVSS
  polyreactivity (PSR sort gate): high polyreactivity

## QVQLVESGGGLVQAGGSLRLSCAASGSIFSYYAMGWYRQAPGKERELVADITVRGGSTYYADSVKGRFTISRDNAKNTVYLQMNSLIPEDTAVYYCAADWLDESFSYGPYYYWGQGTQVTVSS
  polyreactivity (PSR sort gate): low polyreactivity

## QVQLVESGGGLVQAGGSLRLSCAASGRTFIKYARGWYRPAPGKERELVAAISRNGGSTNYADSVKGRFTISRDNAKNTVYFQMNSLKPEDTAVYYCAAVGTVSRTVGYNYWGQGTQVTVSS
  polyreactivity (PSR sort gate): high polyreactivity

## QVQLVESGGGLVQAGGSLRLSCAASGFIFVTYAMGWYRQAPGKERELVAAITNSGGTTYYADSVKGRFTISRDNAKNTVYLQMNSLKPEDTAVYYCNKPYGAETAHREFDYWGQGTQLTVSS
  polyreactivity (PSR sort gate): low polyreactivity

## QVQLVESGGCLVQAGGRLRLSCAASVRTFRSYAMGWYRQAPGKERELVAAISWSGGSTYYADSVKGRFTISRDNAKNTVYLQMTSLKPEDTAGYYCAAEVYYTYVYILDYWGQGTQVTVSS
  polyreactivity (PSR sort gate): high polyreactivity

## QVQLVESGGGLVQAGGSLRLSCAASGLTFSSNAMGWSRQAPGKERELVAVITNGGSTNYADSVKGRFTISRDNAKNTVYLQMNSLKPEDTAVYYCAKDGGPAQDIGMDYWGQGTQVTVSS
  polyreactivity (PSR sort gate): low polyreactivity

## QVQLVESGGGLVQAGGSLRLSCAASGSIFVRNAKGCYRQAPWKERELVAAITATGGRTYYADSVKGRFTISRDNAKNTVYLQMNSLKPEDTAVYYCAAYYPRSGYDYWGQGTQVNVSS
  polyreactivity (PSR sort gate): high polyreactivity

## QVHLVESGGGLVQAGCSLRLSCAASGYIFVRNAMGWYRQAPGKERELVAAISGSGGSTYYADSVKGRFTISRDNAKNTVYLQMNSLKPEDTAVYYCASDPYHWRWGWRHDYWGQGTQVTVSS
  polyreactivity (PSR sort gate): low polyreactivity

## QVQLVESGGGLVQAGGSLRLSCAASGRTFAYNAMGWYRQAPGKERELVAAISRSGGSTYYADSVKGRFTISRDNAKNTVYLQMNSLKPEDTAVYYCNKVTHSYLYFAAGDYWGLGTQVTVSS
  polyreactivity (PSR sort gate): high polyreactivity

## QVQLVESGAGLVHAGGSLRLSCAASGRIFNYYAMGWYRQAPGKESELVAGINWSGTRTYYADSVKGRFTISRDNAKITVYLQMNSLKPEDTAVYYCNAGRTWRAFTGDEYWVQGTQVTVSS
  polyreactivity (PSR sort gate): high polyreactivity

## QVQLVESGGGLVQAGGSLRLSCAASGRSFWKYAMGWCRQAPGKERELVAAITSDGSTYYADSVKGRFTISRDNAKNTVYFQMNSLKPEDTADYYCAAQQWFEYDYWGQGTQVTVSS
  polyreactivity (PSR sort gate): low polyreactivity

## QVQLVESGGGLVQAGGSLRLSCAASGSTFDIYAMGWYRQAPGKERELVAAISVSDVDTYYADSVKGRFTISRDNAKNTVYLQMNSLKPEDTAVYYCAAETPTHDEWGQGTQVTVSS
  polyreactivity (PSR sort gate): high polyreactivity

## QVQLVESGRGLVQAGGILRLSCAASGFIFYYYAMVWYRQAPGKERELVAAISQRGGRTYYAESVKGSFTISRDYAKNTVYLQMNSLKTEDTAVYYCAARPAYRSSYYWGQGTQVTVSS
  polyreactivity (PSR sort gate): high polyreactivity

## QVQLVESGGGLVQAGGSLRLSCAASGITFLANAMGWYRQAPGKERELVATITSRGASTYYADSVKGRFTISRDNAKNTVYLQMNSLKPEDSAVYYCAATVRRRYERYNYWGQGTQVTVSS
  polyreactivity (PSR sort gate): high polyreactivity
